Earlier results in US6194458A, “Benzamide potassium channel inhibitors” (Merck & Co., Inc., priority 1999, dated 2001).

Molecular target: T1, Kv 1.3 channels (Homo sapiens, UniProt P22001)
T1 construct: expressed in transfected cells; host or cells: CHO cells
Conditions: blocker of Kv 1.3 channels; CHO cells transfected with Kv 1.3; stated in the method description

T1 sequence (P22001 whole entry): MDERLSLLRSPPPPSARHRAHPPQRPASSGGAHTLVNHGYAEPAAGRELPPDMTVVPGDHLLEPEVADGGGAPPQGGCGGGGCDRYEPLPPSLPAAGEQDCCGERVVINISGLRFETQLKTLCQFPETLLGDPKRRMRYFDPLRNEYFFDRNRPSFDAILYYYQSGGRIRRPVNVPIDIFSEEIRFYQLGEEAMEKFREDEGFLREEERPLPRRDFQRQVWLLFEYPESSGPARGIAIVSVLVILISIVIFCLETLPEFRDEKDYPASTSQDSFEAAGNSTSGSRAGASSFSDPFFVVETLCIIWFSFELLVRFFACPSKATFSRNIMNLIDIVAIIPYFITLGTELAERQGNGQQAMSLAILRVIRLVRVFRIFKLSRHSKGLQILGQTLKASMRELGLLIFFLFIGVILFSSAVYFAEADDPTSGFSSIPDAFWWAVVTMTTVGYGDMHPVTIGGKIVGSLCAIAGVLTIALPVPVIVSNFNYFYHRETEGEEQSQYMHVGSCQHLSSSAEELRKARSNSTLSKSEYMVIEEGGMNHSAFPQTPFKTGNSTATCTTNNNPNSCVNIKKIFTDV

**Q.** For “margatoxin (TIINVKCTSPKQCLPPCKAQFGQSAGAKCMNGKCKCYPH; UniProt P40755 1-39, looked up)”, which IC50 is on record?
**A.** 100 pM
